{"source": "patent US20210253716A1", "binders": {"B1": {"name": "mAb29261 (antibody, human IgG4 S228P, kappa, V domains shown)", "VH": "EVQLVESGGNLVQPGGSLRLSCAASGFTFSNYAMSWVRQAPGKGLEWVSGITGNGINTYYSVSVKGRFTISRDNSKNTVFLQMNSLRAEDTAIYYCVKERGHSWFGDWFDPWGQGTLVTVSS", "VL": "DIQMTQSPSSLSASVGDRVTITCRASQGIRNDLGWYQQKPGKAPKRLIYAASSLQSGVPSRFSGSGSGTEFTLTISSLQPEDFATYYCLQHNSYPWTFGQGTKVEIKR"}, "B2": {"name": "mAb29266 (antibody, human IgG4 S228P, kappa, V domains shown)", "VH": "QVQLVESGGGVVQPGRSLRLSCEVSGFTFSNYGMHWVRQAPGKGLEWVAVVSYDGSNKYYTDSVKGRFTISRDNSKNTLSLQMNSLRAEDTAVYYCAKDRGITGTSGGVFDIWGQGTMVTVSS", "VL": "AIRMTQSPSSFSATTGDRVTITCRASQGISSHLAWYQQKPGKAPKFLIYVASTLQSGVPSRFSGSGSGTDFTLTISSLQSEDFATYYCQQYYSYPPTFGQGTKVEIKR"}}, "key": {"[1]": {"target": "human ACVR1 extracellular domain expressed with a C-terminal mouse IgG2a Fc tag (human)", "sequence (chain, as listed by the source limits assumed)": "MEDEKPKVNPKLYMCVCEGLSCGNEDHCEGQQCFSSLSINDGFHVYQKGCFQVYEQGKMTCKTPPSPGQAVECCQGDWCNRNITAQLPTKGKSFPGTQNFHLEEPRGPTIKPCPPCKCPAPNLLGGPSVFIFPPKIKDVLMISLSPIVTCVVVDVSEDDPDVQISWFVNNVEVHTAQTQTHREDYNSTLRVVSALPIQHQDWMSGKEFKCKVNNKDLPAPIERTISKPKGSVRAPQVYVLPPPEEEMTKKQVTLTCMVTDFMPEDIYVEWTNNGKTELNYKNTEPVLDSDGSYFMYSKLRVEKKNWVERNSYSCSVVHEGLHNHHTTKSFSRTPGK", "assay": "SPR (Biacore), mAb captured, 25 C"}, "[2]": {"target": "human ACVR1 extracellular domain expressed with a C-terminal mouse IgG2a Fc tag (human)", "assay": "SPR (Biacore), mAb captured, 37 C"}, "[3]": {"target": "mouse ACVR1 extracellular domain expressed with a C-terminal myc-myc-hexahistidine tag (mouse)", "sequence (chain, as listed by the source limits assumed)": "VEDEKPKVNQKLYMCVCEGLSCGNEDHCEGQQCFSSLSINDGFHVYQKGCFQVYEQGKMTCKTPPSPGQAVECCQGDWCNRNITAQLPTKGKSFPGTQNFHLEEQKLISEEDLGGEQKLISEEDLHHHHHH", "assay": "SPR (Biacore), mAb captured, 25 C"}, "[4]": {"target": "mouse ACVR1 extracellular domain expressed with a C-terminal myc-myc-hexahistidine tag (mouse)", "assay": "SPR (Biacore), mAb captured, 37 C"}}}
{"binder": "B1", "values": [{"measurement": "100 nM Ag Bound (RU)", "setting": "[1]", "result": 0, "unit": "RU"}, {"measurement": "100 nM Ag Bound (RU)", "setting": "[2]", "result": 11, "unit": "RU"}]}
{"binder": "B2", "values": [{"measurement": "900 nM or 100 nM Ag Bound (RU)", "setting": "[3]", "result": 5, "unit": "RU"}, {"measurement": "900 nM or 100 nM Ag Bound (RU)", "setting": "[4]", "result": 5, "unit": "RU"}]}
